Experiments:
[1] = system: H3K4 (recombinant histone octamers or mono-nucleosomes); assay: H3K4 histone methyltransferase assay; type: biochemical, human; details: purified complexes, 50 μM S-adenosyl-L-methionine, 8 h at 30 °C, n = 2
Method: Equivalent amounts of purified ASXL2 WT and ΔMBH complexes were incubated with 0.5 μg of reconstituted recombinant mono-nucleosomes or histone octamers as substrates. All HMT assays were performed in 50 mM Tris-HCl pH 8, 100 mM KCl, 5 mM MgCl2, 0.1 mM DTT, 10% glycerol in the presence of 50 μM S-adenosyl-L-methionine (Sigma, A7007). After an 8 h incubation at 30 °C, 4X Laemmli buffer was added, the samples run on 15% SDS-PAGE and transferred on nitrocellulose membrane. Immunoblotting was performed with an anti-H3K4me1 (Ab8895, rabbit polyclonal) diluted 1:1000 followed by HRP conjugated secondary goat anti-rabbit antibody (Sigma) used at a 1:10,000 dilution. The immunoblots were visualized using a Western Lightning plus-ECL reagent (Perkin-Elmer). Anti-H4 (Abcam, Ab7311, rabbit polyclonal) was used at a 1:2,500 dilution.

[2] = system: D372K/D400K MLL3PHD2/3 mutant; assay: GST pull-down, D372K/D400K MLL3PHD2/3; type: binding, human; details: D372K/D400K GST-MLL3PHD2/3; HEK293FT lysate, western blot
Method: (§1) Pull-down assays were performed by mixing resin-bound GST-MLL3PHD2/3 and GST-MLL4PHD2/3 (wild type and mutants) with lysates of HEK293FT expressing Myc-ASXL1, Myc-ASXL2 or Myc-ASXL2ΔMBH. Pellets of HEK293FT cells transfected with the appropriate pDEST expression construct (15 μg/dish using polyethylenimine (PEI)) were lysed with 10 times their volume of lysis buffer (50 mM Tris pH 7.3, 100 mM NaCl, 1 mM DTT, 1 mM EDTA, 1 mM PMSF, 0.1% Tween20, 1/100 anti-protease (Sigma)) and sonicated with a probe sonicator (Branson digital sonifier 450) calibrated at 40% amplitude for 3–4 rounds during 40–60 s. Lysates were then centrifuged in a Sorvall Lynx 6000 (rotor: F21-8x50Y) at 15,000 RPM during 20 min. Approximatively 9 μg of purified GST-fusion proteins bound to GSH resin (Sigma, G4510) were used for each condition. Final volume of GSH resin was adjusted to 30 μl per condition with empty GSH beads and incubated with 1.5 mL of HEK293FT lysate expressing Myc-ASXL1, Myc-ASXL2 or Myc-ASXL2ΔMBH for 3 h at 4 °C on a rotative system. A fraction of the reaction mixture (80 μL) was collected as the input. After the incubation, beads were washed 5 times and mixed with 100 μL of Laemmli buffer. Samples were loaded on 8% or 15% SDS-acrylamide gels and processed for western blotting.

GST-MLL4PHD2/3 = assay: GST pull-down, WT MLL4PHD2/3; type: binding, human; details: WT GST-MLL4PHD2/3; HEK293FT lysate, 3 h at 4 °C, western blot; n = 3
Method: as §1

GST-MLL3PHD2/3 = assay: GST pull-down, WT MLL3PHD2/3; type: binding, human; details: WT GST-MLL3PHD2/3; HEK293FT lysate, 3 h at 4 °C, western blot; n = 3
Method: as §1

[3] = system: MLL4PHD2/3 or MLL3PHD2/3 mutants; assay: GST pull-down, mutated MLL3/4PHD2/3; type: binding, human; details: mutated GST-MLL3/4PHD2/3; HEK293FT lysate, 3 h at 4 °C, western blot; n = 3
Method: as §1

H2AK119 = H2AK119 deubiquitination assay; type: biochemical, human; details: purified complexes on human chromatin, 37 °C, 3 or 6 h, immunoblot
Method: The deubiquitination reactions were done by adding equivalent amounts of ASXL2 WT or ΔMBH (4 μl E1-F) native complexes purified from K562 cells to 0.5 μg of chromatin enriched extracts from K562 cells, incubated at 37 °C in 50 mM Tris-HCl pH 7.3, 50 mM NaCl, 1 mM MgCl2, 1 mM DTT, 1 mM PMSF, 10 μg/ml Leupeptin, 10 μg/ml Pepstatin A, 25 μg/ml Aprotinin. After 3 or 6 h incubation, 4X Laemmli buffer was added, the samples run on 15% SDS-PAGE and transferred on nitrocellulose membrane. Immunoblotting was performed with an anti-H2AK119ub (Cell Signaling, D27C4, rabbit polyclonal) diluted 1:2000 followed by HRP conjugated secondary goat anti-rabbit antibody (Sigma) used at a 1:10,000 dilution. The immunoblots were visualized using a Western Lightning plus-ECL reagent (Perkin-Elmer). Anti-H3 (Abcam, Ab1791, rabbit polyclonal) was used at a 1:50,000 dilution.
Cell pellets were harvested 2 days post-transfection and lysed with 10 times their own volume with EB300 lysis buffer (50 mM Tris pH 7.3, 300 mM NaCl, 0.5% Triton X100 (V/V), 5 mM EDTA, 50 mM NaF, 1 mM Na3VO4 (activated), 10 mM Beta-glycerol-phosphate, 1 mM DTT, 1 mM PMSF, 1/100 anti-protease (Sigma)). Lysates were incubated on ice for 30 min before centrifugation in a Sorvall Lynx 6000 (rotor: F21-8x50Y) at 15,000 RPM during 20 min. Supernatants were collected and diluted with EB0 (50 mM Tris pH 7.3, 0.5% Triton X100 (V/V), 5 mM EDTA, 50 mM NaF, 1 mM Na3VO4, 10 mM Beta-glycerol-phosphate, 1 mM DTT, 1 mM PMSF, 1/100 anti-protease) to adjust the final concentration of NaCl to 150 mM. Agarose anti-FlagM2 beads (40 μL) (Sigma, A2220) were added to each lysate and incubated overnight at 4 °C on a rotative system. The next day, beads were washed 5 times with the wash buffer (50 mM Tris pH 7.3, 150 mM NaCl, 0.5% Triton X100 (V/V), 1/500 anti-protease, 1 mM DTT, 1 mM PMSF). […] Following three elutions of 2 h each, the pooled fractions were incubated with 40 μL of anti-HA beads (Sigma A2095) overnight at 4 °C on a rotative system. […]

MLL3/4 complexes = assay: Tandem affinity purification: interaction with MLL3/4 complexes; type: cell-based, human; details: K562 soluble nuclear extracts, 3Flag-2Strep tag, western blot and mass spectrometry
Method: (§2) Isogenic K562 cell lines expressing 3xFlag2xStrep-tagged ASXL2 WT and ΔMBH (aa 650-670), were generated by integration at the AAVS1 safe harbor locus after DSB induction and recombination targeted by co-transfection with a ZFN expression plasmid, as previously described. 2 × 10^5 cells were transfected with 400 ng of ZFN expression vector and 4 μg of donor constructs. Selection and cloning were performed in RPMI medium supplemented with 0.5 μg/mL puromycin starting 2–3 days post transfection. Clones were obtained by limiting dilution and expanded before harvest for western blot analysis.
(§3) For purification of native complexes, after large-scale expansion of K562 clones, affinity purifications of tagged ASXL2 WT and ΔMBH (aa 650-670) were performed on nuclear extracts as previously described. Briefly, nuclear extracts were prepared following standard procedures and pre-cleared with CL6B Sepharose beads. […] Typically, 5–15 μl of the elutions (1–3% of total) was loaded on NuPAGE 4–12% Bis-Tris gels (Invitrogen) and analyzed by silver staining and western blots. […] Purified fractions were prepared and analyzed at the Proteomics Platform of the Quebec Genomic Center using an Orbitrap Fusion mass spectrometer (Thermo Fisher Scientific) as previously described. […]

PR-DUB complex = assay: Tandem affinity purification: association with PR-DUB complex; type: cell-based, human; details: K562 soluble nuclear extracts, 3Flag-2Strep tag, western blot and mass spectrometry
Method: as §2, §3

[4] = system: active enhancer upstream of GRHL2 gene in K562 ASXL2 KD cells; assay: ChIP-qPCR at active enhancer upstream of GRHL2; type: cell-based, human; details: K562 ASXL2 KD cells complemented from AAVS1; IP/input corrected for total H3; three biological replicates
Source text: K562 cell lines with knocked down expression of endogenous ASXL2 were obtained after double infection of lentivirus expressing Cas9 and 4 different gRNAs targeting the end of exon 1 (pLENTI_CRISPR_V2, co-selection by FACS with GFP). Clone 1 L was selected (obtained with gRNA 1: 5′-[…]-3′ cutting at the very end of exon 1) for transfection of WT and DMBH ASXL2 vectors for integration and stable expression from the AAVS1 safe harbor, as described for the tagged K562 cell lines used for purification. Expression levels of endogenous ASXL2, WT and ΔMBH ASXL2 were monitored by running SDS-PAGE and transferring onto nitrocellulose membrane. Anti-FLAG M2 conjugated to horseradish peroxidase (A8592, Sigma) was used at 1:10,000 dilution and anti-ASXL2, at 1:2,000 (Cell Signaling (E623X), CS71257, lot:1). Immunoblots were visualized using a Western Lightning plus ECL reagent (Perkin-Elmer).
Crosslinked chromatin from K562 cells and immunoprecipitations were prepared as previously described. For chromatin immunoprecipitation, 100 μg of chromatin was incubated with 2 μg anti-H2AK119ub (Cell Signaling, 8240S, D27C4 lot:9) or 3 μg anti-H3 (Abcam, ab1791, lot GR3421644-1), 2 μg anti-H3Kme1 (Abcam, ab8895, lot GR442591-1), 2 μg anti-H3K27ac (Thermo Fisher, MA5-23516, lot: ZA4181671) or 0.3 μg anti-H3K27me3 (Cell Signaling, C36B11, 9733 S lot:19) antibodies overnight at 4 °C. 25 μl of Protein A Dynabeads were then added to each sample, and the mixtures were incubated at 4 °C for 4 h. The beads were washed extensively and eluted with 1% SDS and 0.1 M NaHCO3. Cross-linked samples were reversed by heating overnight at 65 °C in the presence of 0.2 M NaCl. Samples were then treated with RNase A and proteinase K for 2 h, and DNA was recovered using MinElute PCR purification Kit (Qiagen, 28004) according to the manufacturer’s instructions. Quantitative real-time PCR corrected for primer efficiencies in the linear range was performed using SYBR Green I (Roche, 04877352001) on a LightCycler 480 (Roche). Primers for 5′ end of active enhancer: Fwd: 5′-[…]; Rev: 5′-[…]; For 3′ end: Fwd: 5′-[…], Rev: 5′-[…].

- mono-methylation of H3K4 [1]: clearly detected
B1: full-length ASXL2: full length wild type ASXL2 expressed in HEK293FT or K562 cells (protein)
chain: MREKGRRKKGRTWAEAAKTVLEKYPNTPMSHKEILQVIQREGLKEIRSGTSPLACLNAMLHTNSRGEEGIFYKVPGRMGVYTLKKDVPDGVKELSEGSEESSDGQSDSQSSENSSSSSDGGSNKEGKKSRWKRKVSSSSPQSGCPSPTIPAGKVISPSQKHSKKALKQALKQQQQKKQQQQCRPSISISSNQHLSLKTVKAASDSVPAKPATWEGKQSDGQTGSPQNSNSSFSSSVKVENTLLGLGKKSFQRSERLHTRQMKRTKCADIDVETPDSILVNTNLRALINKHTFSVLPGDCQQRLLLLLPEVDRQVGPDGLMKLNGSALNNEFFTSAAQGWKERLSEGEFTPEMQVRIRQEIEKEKKVEPWKEQFFESYYGQSSGLSLEDSKKLTASPSDPKVKKTPAEQPKSMPVSEASLIRIVPVVSQSECKEEALQMSSPGRKEECESQGEVQPNFSTSSEPLLSSALNTHELSSILPIKCPKDEDLLEQKPVTSAEQESEKNHLTTASNYNKSESQESLVTSPSKPKSPGVEKPIVKPTAGAGPQETNMKEPLATLVDQSPESLKRKSSLTQEEAPVSWEKRPRVTENRQHQQPFQVSPQPFLNRGDRIQVRKVPPLKIPVSRISPMPFHPSQVSPRARFPVSITSPNRTGARTLADIKAKAQLVKAQRAAAAAAAAAAAAASVGGTIPGPGPGGGQGPGEGGEGQTARGGSPGSDRVSETGKGPTLELAGTGSRGGTRELLPCGPETQPQSETKTTPSQAQPHSVSGAQLQQTPPVPPTPAVSGACTSVPSPAHIEKLDNEKLNPTRATATVASVSHPQGPSSCRQEKAPSPTGPALISGASPVHCAADGTVELKAGPSKNIPNPSASSKTDASVPVAVTPSPLTSLLTTATLEKLPVPQVSATTAPAGSAPPSSTLPAASSLKTPGTSLNMNGPTLRPTSSIPANNPLVTQLLQGKDVPMEQILPKPLTKVEMKTVPLTAKEERGMGALIATNTTENSTREEVNERQSHPATQQQLGKTLQSKQLPQVPRPLQLFSAKELRDSSIDTHQYHEGLSKATQDQILQTLIQRVRRQNLLSVVPPSQFNFAHSGFQLEDISTSQRFMLGFAGRRTSKPAMAGHYLLNISTYGRGSESFRRTHSVNPEDRFCLSSPTEALKMGYTDCKNATGESSSSKEDDTDEESTGDEQESVTVKEEPQVSQSAGKGDTSSGPHSRETLSTSDCLASKNVKAEIPLNEQTTLSKENYLFTRGQTFDEKTLARDLIQAAQKQMAHAVRGKAIRSSPELFSSTVLPLPADSPTHQPLLLPPLQTPKLYGSPTQIGPSYRGMINVSTSSDMDHNSAVPGSQVSSNVGDVMSFSVTVTTIPASQAMNPSSHGQTIPVQAFSEENSIEGTPSKCYCRLKAMIMCKGCGAFCHDDCIGPSKLCVSCLVVR
modifications: left off: Myc, end not stated, kept
notes: full length wild type ASXL2 expressed in HEK293FT or K562 cells
- association in pull-down [2]: unable to bind full-length ASXL2
- association in pull-down (GST-MLL4PHD2/3): detected
- association in pull-down (GST-MLL3PHD2/3): detected
- association in pull-down [3]: not with the MLL4PHD2/3 or MLL3PHD2/3 mutants
- de-ubiquitination of H2AK119 (H2AK119): efficient and equivalent de-ubiquitination of H2AK119
- interaction with MLL3/4 complexes (MLL3/4 complexes): co-fractionation of the PR-DUB complex with the components of the MLL3/4 complexes
- association with PR-DUB complex (PR-DUB complex): stably associates with the expected components of the PR-DUB complex
- H2AK119ub level [4]: decrease in H2AK119ub level at this enhancer
- H3K4me1 level [4]: not affected

From PMC11161652, “ASXLs binding to the PHD2/3 fingers of MLL4 provides a mechanism for the recruitment of BAP1 to active enhancers” (Nature Communications, 2024)
